Test in all cases: cell-based or functional assay
The target of test [1] is Catalytically active human CD73 (biochemical assay) (human) (UniProt P21589).
Test [2] deals with Membrane-bound CD73 in MDA-MB-231 cells (UniProt P21589).
For test [3], the target named is Soluble CD73 in MDA-MB-231 cells (UniProt P21589).
Test [4] has as its target Membrane-bound human CD73 (internalisation assay) (human) (UniProt P21589).
For test [5], the target named is Membrane-bound mouse CD73 (internalisation assay) (mouse) (UniProt Q61503).
The target in test [6] is Catalytically active mouse CD73 (biochemical assay) (mouse) (UniProt Q61503).

Turning to IPH53 (antibody), in test [1], the % Inhibition of CD73 (biochemical assay), Human came out at 91.3%. Moreover, in test [2], the % Inhibition of CD73 (cell-based assay), Membrane-bound was 68.2%; the Max % Act Mean was found to be 68.8%; the Max % Act n = 1 came to 69.5%; the Max % Act n = 2 stood at 68%. The % Inhibition of CD73 (cell-based assay), soluble in test [3] is 77.1%. In test [4], this substance had a % internalisation of membrane-bound CD73, Human of 47.5%; a Human % Inh, n = 1 (receptor internalisation assay) of 49%; a Human % Inh, n = 2 (receptor internalisation assay) of 46%. In test [5], the % internalisation of membrane-bound CD73, Mouse was 6.46%; the Murine % Inh, n = 1 (receptor internalisation assay) stood at 5.18%; the Murine % Inh, n = 2 (receptor internalisation assay) is 7.74%. In addition, in test [6], the % Inhibition of CD73 (biochemical assay), Mouse is 17.8%.

In test [1], BMS-986179 (antibody) yielded a % Inhibition of CD73 (biochemical assay), Human of 20%. In test [2], this substance had a % Inhibition of CD73 (cell-based assay), Membrane-bound of 29.9%; a Max % Act Mean of 31%; a Max % Act n = 1 of 30%; a Max % Act n = 2 of 32%. Also, the % Inhibition of CD73 (cell-based assay), soluble in test [3] amounted to 10.4%. In test [4], this substance had a % internalisation of membrane-bound CD73, Human of 61.7%; a Human % Inh, n = 1 (receptor internalisation assay) of 8.99%; a Human % Inh, n = 2 (receptor internalisation assay) of 61.7%. In test [5], this substance displayed a % internalisation of membrane-bound CD73, Mouse of 7.14%; a Murine % Inh, n = 1 (receptor internalisation assay) of 5.18%; a Murine % Inh, n = 2 (receptor internalisation assay) of 9.09%. The % Inhibition of CD73 (biochemical assay), Mouse in test [6] is 21.3%.

Take MEDI9447 (antibody): the % Inhibition of CD73 (biochemical assay), Human in test [1] worked out at 42.3%. In test [2], this substance registered a % Inhibition of CD73 (cell-based assay), Membrane-bound of 42%; a Max % Act Mean of 41.8%; a Max % Act n = 1 of 35.5%; a Max % Act n = 2 of 48%. Further, in test [3], the % Inhibition of CD73 (cell-based assay), soluble came out at 40%. Besides, in test [4], the % internalisation of membrane-bound CD73, Human is 58%; the Human % Inh, n = 1 (receptor internalisation assay) was 49.9%; the Human % Inh, n = 2 (receptor internalisation assay) is 66.2%. Moreover, in test [5], the % internalisation of membrane-bound CD73, Mouse came to 70.9%; the Murine % Inh, n = 1 (receptor internalisation assay) was found to be 62.5%; the Murine % Inh, n = 2 (receptor internalisation assay) was found to be 79.4%. This substance had a % Inhibition of CD73 (biochemical assay), Mouse in test [6] of 49.1%.

Take IgG1K (antibody): in test [2], the Max % Act Mean was determined as 3.5% and the Max % Act n = 2 stood at 3.5%.
